Test results taken from the DeepSol protein solubility set.

assay: soluble on expression in E. coli; label from the status in PepcDB or PDB records

| Sequence | soluble on expression in E. coli |
| --- | --- |
| MAQVFNFSSGPAMLPAEVLKLAQQELCDWHGLGTSVMEISHRGKEFIQVAEEAEQDFRDLLNIPSNYKVLFCHGGGRGQFAGVPLNLLGDKTTADYVDAGYWAASAIKEAKKYCAPQIIDAKITVDGKRAVKPMREWQLSDNAAYLHYCPNETIDGIAIDETPDFGPEVVVTADFSSTILSAPLDVSRYGVIYAGAQKNIGPAGLTLVIVREDLLGKAHESCPSILDYTVLNDNDSMFNTPPTFAWYLSGLVFKWLKAQGGVAAMHKINQQKAELLYGVIDNSDFYRNDVAQANRSRMNVPFQLADNTLDKVFLEESFAAGLHALKGHRVVGGMRASIYNAMPIEGVKALTDFMIDFERRHG | not soluble |
| MEARNAEGLESCIEKIQEVKLSSFAELKAFRERKVALITGITGQDGSYLAELLLSKGYKVHGIIRRSSSFNTARIEHLYGNPVTHNGSASFSLHYGDMTDSSCLIKLISTIEPTEIYHLAAQSHVKVSFDLPEYTAEVDAVGTLRLLDAIHACRLTEKVRFYQASTSELYGKVQEIPQSELTPFYPRSPYAVAKMYGYWIVVNYREAYKMFACNGILFNHESPRRGETFVTRKITRSVAKISLRQQEHIELGNLSALRDWGHAKEYVEAMWRILQQDTPDDFVIATGKQFSVREFCNLAFAEIGEQLVWEGEGVDEVGKNQDGVVRVKVSPKYYRPTEVETLLGNPAKARKTLGWEPKITVPELVKEMVASDIALMEADPMA | not soluble |
| MQKQAELYRGKAKTVYSTENPDLLVLEFRNDTSAGDGARIEQFDRKGMVNNKFNYFIMSKLAEAGIPTQMERLLSDTECLVKKLDMVPVECVVRNRAAGSLVKRLGIEEGIELNPPLFDLFLKNDAMHDPMVNESYCETFGWVSKENLARMKELTYKANDVLKKLFDDAGLILVDFKLEFGLYKGEVVLGDEFSPDGSRLWDKETLEKMDKDRFRQSLGGLIEAYEAVARRLGVQLD | soluble |
| MSLRLKVSFQAMESTVPLNYNYFLSSFIYKRLASQNENFARFLHEKGYGKRFKFFTFSQLFFENSRVSGERIFIFPGKGWWYISSPVVEFVRYMFSSLSEDPVIRVGKTEFIVKSIDIENSLPDQSEYHFVMLSPLVVSVPEENNGKLYHRYLHPGEEEFYEVFRKNLMKKYRAFYGKDPEGTVEVIPDWDYIKSRHRITKRIKLKNAFVRAVVFPFKIRGEKKLVEIGYEAGFGEKNSMGFGMVALKKYEREGHHHHHH | soluble |
| MESPIELAPDYYLENFFKLTHHAVTWYSDLLTEEEHAWLCSFDSLNKHAQCLLVRLYSRKGCWFRSDKLNYQEIPLIDAALAELGGQDFISLSPPLSHQEVAANLLTKPEISALYPELPKSLKKDALVERLSNTEFDRVEQLEFTIVRLNSAHMIDVLLTLFFANTHQDLSQFVLDDLGLHQFEQYQLSKVRRFFNSREQIDRLIELSQLANLYWQFDRKDKANLDLLIEAMPHPVHHPYVDRKREHMLNDIARDYERIDELETALSLFGQTQLTPSRERRARIYDKLNHDDLFSDIVTEMLHSPIDVSELEVAQKLEQRLKRKQGEKVPRVTKPTCMEYRVELDLSQQRVELASKAHFESLGWSVFYAENALLNALLGLTFWDAIFAPIEGAFINAYQHRPLDLYHSDFVAKRQALIDEAFAQLKLGNTQAILTKYDEKFGISNPFVQWSLIGKELLEQSLNTIPTRTLLELFKVQLSDLKLYRNGMPDLIAFRDNEFEWIEVKGPGDKLQDNQWRWIKEFSRLNVPFAVCYVTARKEDEKRVD | not soluble |
| SSTHVAGLGLDKMKLGNPQSFLDQEEADDQQLLEPEAWKTYTERRNALREFLTSDLSPHLLKRHHARMQLLRKCSYYIEVLPKHLALGDQNPLVLPSALFQLIDPWKFQRMKKVGTAQTKIQLLLLGDLLEQLDHGRAELDALLRSPDPRPFLADWALVERRLADVSAVMDSFLTMMVPGRLHVKHRLVSDVSATKIPHIWLMLSTKMPVVFDRKASAAHQDWARLRWFVTIQPATSEQYELRFRLLDPRTQQECAQCGVIPVAACTFDVRNLLPNRSYKFTIKRAETSTLVYEPWRDSLTLHTKPEPLEGPALSHSV | soluble |
| MGSDKIHHHHHHMDVLTPTPLTYPYEASRPKMALIAEGGGQRGIFTAGVLDAWLDNDFDPFDLFIGTSAGSQNLTSFLSRQKGYAKRLIRGLSRHKRFYQLGRGLVGGNVVDLDWYFDKTTQGSFALDFTAAAKSLGQRELLITATNSRDRQGYFLRPNGDNDHWRELLKASSALPFLYKQGVKLAPWLTASAANQVHTNYDYPQADFYLDGGLAAPLPVREAYRRGARKIVVIRTVNADFHAQSAWVHKLKSWICVSGYCPKTIDYLAQHEQAYEQELAFIANPPDDVEIIQIFADDNLQSKLLGSTDMDLRHDYQTGITAGNAFLHTQKAFYSTHSLHAQPLLESLTIMQSMTA | not soluble |
